B1: hCT1: Recombinant human CT1 protein; 201 amino acid sequence, GenBank Accession Nos AAD12173 and AAA85229 (human) (protein, UniProt Q16619 1-201, looked up)
Cardiotrophin-1: MSRREGSLEDPQTDSSVSLLPHLEAKIRQTHSLAHLLTKYAEQLLQEYVQLQGDPFGLPSFSPPRLPVAGLSAPAPSHAGLPVHERLRLDAAALAALPPLLDAVCRRQAELNPRAPRLLRRLEDAARQARALGAAVEALLAALGAANRGPRAEPPAATASAASATGVFPAKVLGLRVCGLYREWLSRTEGDLGQLLPGGSA

Legend:
Format in all cases: cell-based
STAT3 = STAT3 luciferase reporter in cardiomyocytes; settings: 30 minutes up to 24 hours; hCT1 0.5 nM, PE 100 μM, PAC-1 25 μM
Description: (§1) FIGS. 6A, 6B, and 6C. Stimulation with hCT1 causes sustained activation of NF-κB and Stat3 with limited activation of Mef2, as well as limited Nfat activation; the latter two indices are distinct expression patterns from pathologic hypertrophic stimulation. FIG. 6A Primary neonatal cardiomyocytes were transfected with luciferase reporter plasmids (NF-κB or Mef2), as indicators of hypertrophic activity. Luciferase activity was measured after treatments for 24 hrs with: hCT1 (0.5 nM), PE (100 μM), or procaspase 3 activating compound 1, PAC-1 (25 μM) (left). Treatments at early timepoints (30 min, 1 hr, and 3 hr) were also conducted for hCT1 (right). FIG. 6B Primary neonatal cardiomyocytes were transfected with a luciferase reporter plasmid for Stat3. Luciferase activity was measured after treatments for 24 hrs with: hCT1 (0.5 nM), PE (100 μM), or procaspase 3 activating compound 1, PAC-1 (25 μM) (left) and at earlier time points (right). FIG. 6C Primary neonatal cardiomyocytes were infected with a luciferase-based Nfat reporter Adenovirus (Nfat-AdV). Luciferase activity was measured after treatments for 24 hrs with: hCT1 (0.5 nM), PE (100 μM), or procaspase 3 activating compound 1, PAC-1 (25 μM) (left) and at earlier time points (right)
Moreover, it is reasonable to assume that CT-1 may moderate the activity of additional transcription factors, which further contribute to the adaptive compensation phenotype. As such, Applicants decided to test the hypothesis that STAT3 (Signal transducer and activator of transcription 3) dependent transcriptional activity is a specific determinant for CT-1 induced physiologic adaptive compensation. STAT3 phosphorylation and transcriptional activation is a response that is common to the Interleukin-6 cytokine family (of which CT-1 is a member), which is mediated through binding and activation of a JAK/gp130 (Janus kinase/[…]) receptor complex.

NFAT = NFAT luciferase reporter adenovirus (Nfat-AdV) in cardiomyocytes
Description: as §1
Applicants tested this supposition by infecting cardiomyocytes with an NFAT luciferase reporter linked to an Adenovirus (AdV) backbone (FIG. 6C). Cardiomyocytes were infected at a […] (MOI) of 20 with Nfat-AdV for 24 hours prior to stimulation with hCT1 (0.5 nM), PE (100 μM), or procaspase 3 activating compound 1, PAC-1 (25 μM). As an initial positive control, co-infection of NFAT-AdV with activated Calcineurin-AdV (a phosphatase and potent activator of NFAT signalling) caused a significant increase in NFAT activity (n=4; *, P<0.05). […] Although the exact mechanism of inhibition is unknown, Applicant has shown CT-1 engaging a PI3K signalling pathway and it would be reasonable to postulate that phosphorylation of NFAT by CT-1/PI3K signalling would limit NFAT activity.

[1] = system: Vascular Endothelial Growth Factor—VEGF; assay: VEGF expression by immunofluorescence in primary cardiomyocytes; settings: 24 hours; hCT1 0.5 nM, PE 100 μM, PAC-1 25 μM
Description: FIGS. 8A and 8B. […] FIG. 8B Microarray analysis of primary cardiomyocytes stimulated with hCT1 (0.5 nM) for 24 hours.
Applicant explored the role of CT-1 as a pro-angiogenic factor in the adaptive hypertrophic response. Physiologic cardiac adaptive compensation is associated with an increase in capillary density, whereas pathologic response is characterized by a decline or no change at all. Importantly, the compensatory vascular growth/angiogenesis that occurs during physiologic adaptive compensation is permissive for the increased workload that accompanies physiologic adaptive compensation. Despite this adaptation, little information exists regarding the mechanisms that match the demand for angiogenesis to the beneficial form of myocardial growth. The rapid in vitro and in vivo adaptive compensation in response to CT-1 supports a hypothesis that the cardiomyocyte itself may act in a paracrine fashion, to signal and promote angiogenesis. To address this conjecture, Applicant examined whether CT-1 treated primary cardiomyocytes produced vascular endothelial growth factor (VEGF), an angiogenic factor known to be produced and secreted by cardiomyocytes. Primary cardiomyocytes were incubated with control serum-free media (Ctrl, SF media) or stimulated with hCT1 (0.5 nM), PE (100 μM), or PAC-1 (25 μM) for 24 hours. Immunofluorescence was used to detect α-actinin, Vascular Endothelial Growth Factor—VEGF, and nuclei. […] Based on these observations Applicant next conducted a comparative gene expression analysis of control (non-stimulated) versus CT-1 treated (0.5 nM, 24 hours) primary cardiomyocytes, using the Affymetrix Rat gene 2.0ST array.

[2] = system: primary neonatal cardiomyocytes; assay: Morphometric analysis of stimulated primary neonatal cardiomyocytes (cell area, length:width ratio); settings: 24 hours stimulation, PE 100 μM; for cell areas increases: versus serum-free control
Description: FIGS. 1A and 1B. Morphometric analysis of primary cardiomyocytes stimulated with human Cardiotrophin-1 (hCT1) and/or the hypertrophy agonist Phenylephrine (PE).
Phenylephrine (PE) was used as a pathological adaptive compensation control as it is a known target of the stress-activated G-protein coupled alpha (α)-adrenergic pathway. Primary neonatal cardiomyocytes were stimulated for 24 hours with hCT1 (0.5 nM), PE (100 μM), the combination of hCT1 and PE, or control serum-free (SF) media followed by morphometric analysis (cell area and length:width ratio) (FIG. 1A). […] This CT-1 mediated growth is typical of the cardiomyocyte adaptations that occur during physiologic adaptive compensation with an L:W ratio that is divergent from PE induced growth.

Row | Molecule | STAT3 activation (STAT3) | NFAT activity compared to baseline levels (NFAT; as early as 3 hours, up to 24 hours, PE 100 μM, PAC-1 25 μM) | VEGF expression (immunofluorescence) [1] | L:W ratio, in words [2] | cell areas increases ([2]; hCT1 0.5 nM) | NFAT activity compared to baseline levels, CT-1 alone (NFAT; 30 minutes, 1 hour, and 3 hours) | NFAT activity after CT-1 pre-treatment compared to PE or PAC-1 alone (NFAT; 3 hours and 24 hours) | L:W ratio (length to width ratio) ([2]; hCT1 0.5 nM)
1 | CNC[C@H](O)c1cccc(O)c1 [PE, Phenylephrine] | only minimal (if any) activation | significant increase of NFAT activity | less VEGF expression | same or shortened L:W ratio | 171% |  |  | 
2 | B1 | significant STAT3 activation |  | rapid increase in the expression of VEGF |  | 162% | slight, yet significant, decrease in NFAT activity | significantly decreased NFAT activity | 172%
